Results: article PMC3715890 (2013)

Molecular target: HIF-1alpha PAS-B (235-350) (Homo sapiens, UniProt Q16665)
Experiment: ITC

HIF-1alpha PAS-B (235-350), sequence (Q16665 235-350): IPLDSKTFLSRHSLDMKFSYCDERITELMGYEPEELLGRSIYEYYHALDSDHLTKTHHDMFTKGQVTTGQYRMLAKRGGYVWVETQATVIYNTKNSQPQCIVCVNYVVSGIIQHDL

Kd: 124 nM
Binder: cyclo(C(S‑S‑Tat)LLFVY) [P1 (Tat-cyclo-CLLFVY)]
